Numbering of substitutions follows the chain as printed. Names may count otherwise.
T1: human CTLA4 protein (human, UniProt P16410 37-162, limits assumed)
T1 construct: bought protein coated on the ELISA plate; also called human CTLA4 antigen
T1 sequence (looked up): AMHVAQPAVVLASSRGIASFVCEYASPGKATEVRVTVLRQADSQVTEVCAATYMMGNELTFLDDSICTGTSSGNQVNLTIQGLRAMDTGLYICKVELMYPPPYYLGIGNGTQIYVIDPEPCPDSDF

B1: Abs-353 (other)
heavy: VIHVTKEVKEVATLSCGHNVSVEELAQTRIYWQKNKKMVLTMMSGDMNIWPEYKNRTIFDITNNLSIVILELRPSDEGTYECVVLKYEKDAFKREHLAEVTLSVKADGGGGSGGGGSGGGGSGGGGSGEVQLLESGGGLVQPGGSLRLSCAASGFTFSSYAMSWVRQAPGKGLEWVSGISGSGGFTYYADSVKGRFTISRDNSKNTLYLQMNSLRAEDTAVYYCAKPPRGYNYGPFDYWGQGTLVTVSSASTKGPSVFPLAPCSRSTSESTAALGCLVKDYFPEPVTVSWNSGALTSGVHTFPAVLQSSGLYSLSSVVTVPSSSLGTKTYTCNVDHKPSNTKVDKRVESKYGPPCPPCPAPEFLGGPSVFLFPPKPKDTLMISRTPEVTCVVVDVSQEDPEVQFNWYVDGVEVHNAKTKPREEQFNSTYRVVSVLAVLHQDWLNGKEYKCKVSNKGLPSSIEKTISKAKGQPREPQVYTLPPSQEEMTKNQVSLTCLVKGFYPSDIAVAWESNGQPENNYKTTPPVLDSDGSFFLYSRLTVDKSRWQEGNVFSCSVMHEALHAHYTQKSLSLSLGK
light: SYVLTQPPSVSVAPGQTARITCGGNNIGSKSVHWYQQKPGQAPVLVVYDDSDRPSGIPERFSGSNSGNTATLTISRVEAGDEADYYCQVWDSSSDHVVFGGGTKLTVLGQPKAAPSVTLFPPSSEELQANKATLVCLISDFYPGAVTVAWKADSSPVKAGVETTTPSKQSNNKYAASSYLSLTPEQWKSHRSYSCQVTHEGSTVEKTVAPTECS
notes: CD80 IgV mutant fused to the N-terminus of the sugemalimab heavy chain; also called CD80 IgV mutant E35N/A71E-sugemalimab fusion
B2: Abs-99 (other)
heavy: B1 heavy with N35E, E71A
light: B1 light
notes: CD80 IgV fused to the N-terminus of the heavy chain of the anti-PD-L1 antibody sugemalimab; also called wild type Abs-99; wild-type CD80 IgV-sugemalimab fusion polypeptide complex
B3: Abs-256 (other)
heavy: B1 heavy with H18W, A26M, N35E, L85D
light: B1 light
notes: the paragraph that names the antibody is followed; also called CD80 IgV mutant H18W/A26M/A71E/L85D-sugemalimab fusion
B4: Abs-257 (other)
heavy: B1 heavy with H18W, A26C, N35E, L85N
light: B1 light
notes: the paragraph that names the antibody is followed; also called CD80 IgV mutant H18W/A26C/A71E/L85N-sugemalimab fusion
B5: Abs-260 (other)
heavy: B1 heavy with A26M, N35E, L85D
light: B1 light
notes: the paragraph that names the antibody is followed; also called CD80 IgV mutant A26M/A71E/L85D-sugemalimab fusion
B6: Abs-264 (other)
heavy: B1 heavy with H18W, A26V, L85N
light: B1 light
notes: the paragraph that names the antibody is followed; also called CD80 IgV mutant H18W/A26V/E35N/A71E/L85N-sugemalimab fusion
B7: Abs-354 (other)
heavy: B1 heavy with E71N
light: B1 light
notes: CD80 IgV mutant fused to the N-terminus of the sugemalimab heavy chain; also called CD80 IgV mutant E35N/A71N-sugemalimab fusion
B8: Abs-355 (other)
heavy: B1 heavy with E71Q
light: B1 light
notes: CD80 IgV mutant fused to the N-terminus of the sugemalimab heavy chain; also called CD80 IgV mutant E35N/A71Q-sugemalimab fusion
B9: Abs-356 (other)
heavy: B1 heavy with E71T
light: B1 light
notes: CD80 IgV mutant fused to the N-terminus of the sugemalimab heavy chain; also called CD80 IgV mutant E35N/A71T-sugemalimab fusion
B10: Abs-357 (other)
heavy: B1 heavy with N35S
light: B1 light
notes: CD80 IgV mutant fused to the N-terminus of the sugemalimab heavy chain; also called CD80 IgV mutant E35S/A71E-sugemalimab fusion
B11: Abs-358 (other)
heavy: B1 heavy with N35S, E71N
light: B1 light
notes: CD80 IgV mutant fused to the N-terminus of the sugemalimab heavy chain; also called CD80 IgV mutant E35S/A71N-sugemalimab fusion
B12: Abs-359 (other)
heavy: B1 heavy with N35S, E71Q
light: B1 light
notes: CD80 IgV mutant fused to the N-terminus of the sugemalimab heavy chain; also called CD80 IgV mutant E35S/A71Q-sugemalimab fusion
B13: Abs-360 (other)
heavy: B1 heavy with N35S, E71T
light: B1 light
notes: CD80 IgV mutant fused to the N-terminus of the sugemalimab heavy chain; also called CD80 IgV mutant E35S/A71T-sugemalimab fusion
B14: Abs-361 (other)
heavy: B1 heavy with N35Q
light: B1 light
notes: CD80 IgV mutant fused to the N-terminus of the sugemalimab heavy chain; also called CD80 IgV mutant E35Q/A71E-sugemalimab fusion
B15: Abs-362 (other)
heavy: B1 heavy with N35Q, E71N
light: B1 light
notes: CD80 IgV mutant fused to the N-terminus of the sugemalimab heavy chain; also called CD80 IgV mutant E35Q/A71N-sugemalimab fusion
B16: Abs-363 (other)
heavy: B1 heavy with N35Q, E71Q
light: B1 light
notes: CD80 IgV mutant fused to the N-terminus of the sugemalimab heavy chain; also called CD80 IgV mutant E35Q/A71Q-sugemalimab fusion
B17: Abs-364 (other)
heavy: B1 heavy with N35Q, E71T
light: B1 light
notes: CD80 IgV mutant fused to the N-terminus of the sugemalimab heavy chain; also called CD80 IgV mutant E35Q/A71T-sugemalimab fusion
B18: Abs-265 (other)
heavy: B1 heavy with T13K, N35E, M42L, M47H
light: B1 light
notes: the paragraph that names the antibody is followed; also called CD80 IgV mutant T13K/M42L/M47H/A71E-sugemalimab fusion
B19: Abs-266 (other)
heavy: B1 heavy with T13K, N35E, M42L, M47Q
light: B1 light
notes: the paragraph that names the antibody is followed; also called CD80 IgV mutant T13K/M42L/M47Q/A71E-sugemalimab fusion
B20: Abs-267 (other)
heavy: B1 heavy with T13K, N35E, M42L
light: B1 light
notes: the paragraph that names the antibody is followed; also called CD80 IgV mutant T13K/M42L/A71E-sugemalimab fusion
B21: Abs-268 (other)
heavy: B1 heavy with T13K, N35E, M42T, M47H
light: B1 light
notes: the paragraph that names the antibody is followed; also called CD80 IgV mutant T13K/M42T/M47H/A71E-sugemalimab fusion
B22: Abs-270 (other)
heavy: B1 heavy with T13K, N35E, M42T
light: B1 light
notes: CD80 IgV mutant fused to the N-terminus of the sugemalimab heavy chain; also called CD80 IgV mutant T13K/M42T/A71E-sugemalimab fusion
B23: Abs-271 (other)
heavy: B1 heavy with N35E, M47H, I69Y, V83L
light: B1 light
notes: CD80 IgV mutant fused to the N-terminus of the sugemalimab heavy chain; also called CD80 IgV mutant M47H/I69Y/A71E/V83L-sugemalimab fusion
B24: Abs-272 (other)
heavy: B1 heavy with N35E, M47Q, I69Y, V83L
light: B1 light
notes: CD80 IgV mutant fused to the N-terminus of the sugemalimab heavy chain; also called CD80 IgV mutant M47Q/I69Y/A71E/V83L-sugemalimab fusion
B25: Abs-273 (other)
heavy: B1 heavy with N35E, M47K, I69Y, V83L
light: B1 light
notes: CD80 IgV mutant fused to the N-terminus of the sugemalimab heavy chain; also called CD80 IgV mutant M47K/I69Y/A71E/V83L-sugemalimab fusion
B26: Abs-366 (other)
heavy: B1 heavy with N35T, E71N
light: B1 light
notes: CD80 IgV mutant fused to the N-terminus of the sugemalimab heavy chain; also called CD80 IgV mutant E35T/A71N-sugemalimab fusion

Each binder was assayed against PD-L1 on TCR activator PD-L1-CHO cells (UniProt Q9NZQ7 19-290, limits assumed) (assay: cell-based or functional assay).
PD-L1 on TCR activator PD-L1-CHO cells, sequence (Q9NZQ7 19-290 limits assumed): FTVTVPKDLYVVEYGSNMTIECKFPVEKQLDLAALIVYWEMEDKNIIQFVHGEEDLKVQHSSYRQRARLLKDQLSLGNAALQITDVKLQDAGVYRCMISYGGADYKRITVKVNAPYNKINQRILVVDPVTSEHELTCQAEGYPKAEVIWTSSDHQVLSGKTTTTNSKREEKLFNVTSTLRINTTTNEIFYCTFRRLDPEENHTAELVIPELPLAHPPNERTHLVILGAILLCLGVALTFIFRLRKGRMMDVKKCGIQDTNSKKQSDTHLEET

Row | Binder | EC50(nM), Jurkat-NFAT-Luc/CHO-PDL1 | The highest induction relative to 10 nM sugemalimab
1 | B1 | 0.48 nM | 1130%
2 | B2 | 0.28 nM | 215%
3 | B3 | 0.87 nM | 133%
4 | B4 | 0.82 nM | 122%
5 | B5 | 0.65 nM | 128%
6 | B6 | 0.82 nM | 154%
7 | B7 | 0.25 nM | 1610%
8 | B8 | 0.56 nM | 1110%
9 | B9 | 0.9 nM | 441%
10 | B10 | 1 nM | 238%
11 | B11 | 1.1 nM | 277%
12 | B12 | 0.88 nM | 42%
13 | B13 | 0.82 nM | 64%
14 | B14 | 1.13 nM | 334%
15 | B15 | 0.58 nM | 337%
16 | B16 | 1 nM | 121%
17 | B17 | 1.06 nM | 150%

These binders were tested against T2, human CD28 protein (human, UniProt P10747 19-152) (assay: ELISA, plate-coated human CD28).
T2 construct: bought protein coated on the ELISA plate; also called human CD28 antigen
T2 sequence (P10747 19-152 limits assumed): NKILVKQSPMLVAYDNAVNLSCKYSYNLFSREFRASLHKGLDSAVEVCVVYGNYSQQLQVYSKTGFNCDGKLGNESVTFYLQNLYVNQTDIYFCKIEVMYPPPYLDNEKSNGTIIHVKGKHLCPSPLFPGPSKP
Parameters: binding strength @ 100nM: reference not given here

Row | Binder | EC50 | binding strength @ 100nM | binding result
18 | B1 | 25 nM | 1450% | –
19 | B2 | 27.9 nM | 283% | –
20 | B3 | – | – | no binding
21 | B4 | – | – | no binding
22 | B5 | – | – | no binding
23 | B6 | – | – | no binding
24 | B18 | – | – | no binding
25 | B19 | – | – | no binding
26 | B20 | – | – | no binding
27 | B21 | – | – | no binding
28 | B22 | – | – | no binding
29 | B23 | – | – | no binding
30 | B24 | – | – | no binding
31 | B25 | – | – | no binding
32 | B7 | 22.1 nM | 6300% | –
33 | B8 | 26.8 nM | 530% | –
34 | B9 | 27.8 nM | 733% | –
35 | B10 | 26 nM | 585% | –
36 | B11 | – | – | no binding
37 | B12 | 21.1 nM | 450% | –
38 | B13 | 25.9 nM | 933% | –
39 | B14 | – | – | no binding
40 | B15 | 26.1 nM | 1100% | –
41 | B16 | – | – | no binding
42 | B17 | 27.6 nM | 785% | –
43 | B26 | – | – | no binding

Each binder was assayed against T1, human CTLA4 protein (assay: ELISA, plate-coated human CTLA4).

Row | Binder | EC50 | binding strength @ 20nM | binding result
44 | B1 | 0.128 nM | 2490% | –
45 | B2 | 24.4 nM | 1200% | –
46 | B3 | – | – | no binding
47 | B4 | – | – | no binding
48 | B5 | – | – | no binding
49 | B6 | – | – | no binding
50 | B18 | – | – | no binding
51 | B19 | – | – | no binding
52 | B20 | 13.7 nM | 1920% | –
53 | B21 | – | – | no binding
54 | B22 | – | – | no binding
55 | B23 | – | – | no binding
56 | B24 | – | – | no binding
57 | B25 | – | – | no binding
58 | B7 | 0.124 nM | 3010% | –
59 | B8 | 0.236 nM | 3420% | –
60 | B9 | 18.5 nM | 1670% | –
61 | B10 | 17.8 nM | 1830% | –
62 | B11 | – | – | no binding
63 | B12 | 26.4 nM | 766% | –
64 | B13 | 26.7 nM | 316% | –
65 | B14 | – | – | no binding
66 | B15 | 8.39 nM | 3180% | –
67 | B16 | – | – | no binding
68 | B17 | 5.45 nM | 3130% | –
69 | B26 | – | – | no binding
